Patent publication US6093549, “Huntingtin-associated protein-related assays” (The Johns Hopkins University, dated 2000)

Biological target: GAL-4 binding domain vector alone (pPC97) (yeast, UniProt P04386)
Experiment: yeast two-hybrid filter assay
Excerpt: A cDNA encoding the first 230 amino acids of huntingtin containing 44 glutamine repeats was ligated to the GAL-4 binding domain in plasmid vector pPC97 for yeast two hybrid screening with a rat brain cDNA library.
A cDNA construct containing the first 230 amino acids with 44 or 23 glutamine repeats was in-frame fused with the GAL4 DNA binding domain of plasmid pPC97[27].

B1: rHAP1-BR (rat huntingtin Associated Protein1 Binding Region), GAL-4 activation domain construct (other)
chain: LLEEENDHLREEASHLDNLEDKEQMLILECVEQFSEASQQMAELSEVLVLRLEGYERQQKEITQLQAEITKLQQRCQSYGAQTEKLQQQLASEKGVHPESLRAGSHMQDYGSRPRERQEDGKSHRQRSSMPAGSVTHYGYSVPLDALPSFPETLAEELRTSLRKFITDP
B1: no binding.
